{"source": "patent US20190153113A1", "about": "“CD39 VASCULAR ISOFORM TARGETING AGENTS” (INNATE PHARMA, priority 2015, published 2019)", "molecules": {"B1": {"name": "Antibody I-391 with Fc domain of mouse IgG2a isotype (MOGA) (antibody, V domains shown)", "VH": "QIQLVQSGPELKKPGETVKISCKASGYTFRNYGMNWVKQAPGKGLKWMGWINTYTGEPTYADDFKGRFAFSLATSASTAYLQISNLKNEDTATYFCARKAYYGSNYYFDYWGQGTTLTVSS", "VL": "DIVMTQSHKFMSTSVGDRVSITCKASQDVSTAVAWYQQKPGQSPKLLIYSASYRYTGVPDRFTGSGSGTDFTFTISTVQAEDLAVYYCQQHYTTPPYTFGGGTKLEIK"}, "B2": {"name": "Antibody I-392, recombinant chimeric human IgG1 with heavy chain N297Q mutation (antibody, V domains shown)", "VH": "QIQLVQSGPEVKKPRETVKISCKASGYTFTHYGMNWVKQAPGKGLKWMGWINTYTGEPTYADDFKGRFAFSLEASASTAYLQINNLKNEDTATYFCARRRYEGNYVFYYFDYWGQGTTLTVSS", "VL": "DIQMTQSPASLSASVGETVTITCRASENIYSYFSWYQQKQGKSPQLLVYTAKTLAEGVPSRFSGSGSGTQFSLKINSLQPEDFGSYYCQHHYVTPYTFGGGTKLEIK"}}, "key": {"CD39": {"molecular_target": "T1, CD39 (Homo sapiens, UniProt P49961)", "T1 construct": "cells that endogenously express CD39 at their surface, e.g. regulatory T (TReg) cells, B cells, cancer cells, lymphoma cells (e.g. Ramos cells); endogenous in cells; host or cells: Ramos human lymphoma cells", "T1 sequence (P49961 1-510)": "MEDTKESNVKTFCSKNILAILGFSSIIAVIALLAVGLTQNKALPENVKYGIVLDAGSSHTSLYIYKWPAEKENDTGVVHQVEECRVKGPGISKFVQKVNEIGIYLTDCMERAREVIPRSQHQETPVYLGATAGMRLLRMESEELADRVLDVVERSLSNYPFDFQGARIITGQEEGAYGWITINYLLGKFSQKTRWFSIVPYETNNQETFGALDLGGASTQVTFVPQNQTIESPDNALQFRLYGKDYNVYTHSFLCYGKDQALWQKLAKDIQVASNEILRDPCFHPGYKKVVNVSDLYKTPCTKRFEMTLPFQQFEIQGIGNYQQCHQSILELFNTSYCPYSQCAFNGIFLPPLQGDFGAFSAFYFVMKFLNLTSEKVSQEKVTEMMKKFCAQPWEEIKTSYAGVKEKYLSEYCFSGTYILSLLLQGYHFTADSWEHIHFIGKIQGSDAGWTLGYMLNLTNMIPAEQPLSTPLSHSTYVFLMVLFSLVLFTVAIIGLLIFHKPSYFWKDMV", "assay": "Inhibition of CD39 enzymatic activity in Ramos cells, AMP production by Maldi TOF mass spectrometry", "assay_type": "cell-based", "conditions": "Ramos cells, ARL at 100 nM, Example 7", "method": "The inhibition of CD39 enzymatic activity by antibodies was evaluated by Maldi TOF mass spectrometry (production of AMP). This assay represents an assay that is relatively insensitive to down-modulation of CD39 expression. […] After washes, cells were incubated with anti-CD39 antibodies, isotype control, or ARL and 50 μM ATP for 30 minutes at 4° C. in PBS. AMP generated is quantified in supernatants by Maldi TOP.\nThe inhibition of CD39 enzymatic activity by antibodies was evaluated by Maldi TOF mass spectrometry (production of AMP). Briefly, 10^5 Ramos human lymphoma cells were incubated overnight at 37° C. with anti-CD39 antibodies or a chemical CD39 inhibitor (ARL 100 μM). After washes, cells were incubated with anti-CD39 antibodies, isotype control, or ARL and 50 μM ATP for 30 minutes at 4° C. in PBS. AMP generated is quantified in supernatants by Maldi TOP. Antibodies were used at 33 nM and ARL at […]."}, "[1]": {"molecular_target": "T2, Recombinant human CD39 protein (vascular isoform), soluble (human, UniProt P49961 38-478)", "T2 construct": "they are written under this molecule; also called Rec-huCD39; huCD39 protein; not shown: M2 tag added in the C-terminal part", "T2 sequence": "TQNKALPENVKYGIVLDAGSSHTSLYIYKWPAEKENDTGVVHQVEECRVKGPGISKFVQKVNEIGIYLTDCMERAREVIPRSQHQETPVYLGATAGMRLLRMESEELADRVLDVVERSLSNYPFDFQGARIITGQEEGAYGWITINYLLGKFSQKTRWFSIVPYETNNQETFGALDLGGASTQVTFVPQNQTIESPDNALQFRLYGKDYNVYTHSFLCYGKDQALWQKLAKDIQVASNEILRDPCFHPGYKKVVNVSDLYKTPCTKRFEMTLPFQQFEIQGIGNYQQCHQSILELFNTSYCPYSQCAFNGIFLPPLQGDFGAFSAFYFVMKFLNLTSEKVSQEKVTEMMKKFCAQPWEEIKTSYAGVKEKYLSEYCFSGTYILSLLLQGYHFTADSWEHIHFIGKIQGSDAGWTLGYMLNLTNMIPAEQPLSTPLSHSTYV", "assay": "ELISA on coated recombinant human CD39 (RechuCD39), HRP secondary antibody, TMB, OD 450 nm [bottom panel Mouse IgG2a I-391]", "method": "(§1) Wells were washed in TBS Tween 20, and further saturated 2H at RT in TBS Blocking buffer. Dose range concentration of primary antibody was incubated in TBS blocking buffer for 2h at RT. Wells were washed in TBS Tween 20. […] Optical density was measured on Enspire at OD=450."}, "[2]": {"molecular_target": "T3, Recombinant human CD39-L3 (NTPDase3, ENTPD3) (human, UniProt O75355 44-485, limits assumed)", "T3 construct": "Coated in ELISA", "T3 sequence": "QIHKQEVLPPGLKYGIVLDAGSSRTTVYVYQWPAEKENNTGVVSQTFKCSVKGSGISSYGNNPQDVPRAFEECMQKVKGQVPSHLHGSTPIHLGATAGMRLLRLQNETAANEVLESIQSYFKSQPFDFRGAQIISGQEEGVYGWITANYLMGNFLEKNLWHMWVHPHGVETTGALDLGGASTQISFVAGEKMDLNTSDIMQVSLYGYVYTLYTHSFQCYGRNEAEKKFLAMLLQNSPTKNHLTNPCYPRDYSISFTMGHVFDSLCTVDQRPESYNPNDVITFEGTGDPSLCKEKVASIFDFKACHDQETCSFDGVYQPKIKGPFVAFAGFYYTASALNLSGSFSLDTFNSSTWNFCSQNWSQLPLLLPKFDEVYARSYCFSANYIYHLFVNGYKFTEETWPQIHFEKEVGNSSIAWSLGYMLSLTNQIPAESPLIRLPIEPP", "assay": "ELISA on coated RechuCD39-L3, OD 450 nm [bottom panel Mouse IgG2a I-391]", "method": "as §1"}, "[3]": {"molecular_target": "T4, Recombinant human CD39-L2 (NTPDase6, ENTPD6) (human, UniProt O75354 61-484, limits assumed)", "T4 construct": "Coated in ELISA", "T4 sequence": "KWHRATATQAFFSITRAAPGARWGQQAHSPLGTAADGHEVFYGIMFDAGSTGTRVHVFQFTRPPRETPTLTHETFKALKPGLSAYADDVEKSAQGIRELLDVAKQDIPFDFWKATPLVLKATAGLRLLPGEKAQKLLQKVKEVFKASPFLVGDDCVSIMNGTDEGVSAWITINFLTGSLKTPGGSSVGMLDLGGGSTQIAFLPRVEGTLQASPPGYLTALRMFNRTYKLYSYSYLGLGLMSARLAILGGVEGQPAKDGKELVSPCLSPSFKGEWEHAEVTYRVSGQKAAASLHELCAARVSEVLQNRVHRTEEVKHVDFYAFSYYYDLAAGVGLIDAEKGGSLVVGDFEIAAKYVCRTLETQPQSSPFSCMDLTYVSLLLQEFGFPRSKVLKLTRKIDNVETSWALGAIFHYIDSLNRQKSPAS", "assay": "ELISA on coated RechuCD39-L2, OD 450 nm [bottom panel Mouse IgG2a I-391]", "method": "as §1"}, "[4]": {"molecular_target": "T5, Recombinant human CD39-L4 (NTPDase5, ENTPD5) (human, UniProt O75356 25-428)", "T5 construct": "Coated in ELISA", "T5 sequence": "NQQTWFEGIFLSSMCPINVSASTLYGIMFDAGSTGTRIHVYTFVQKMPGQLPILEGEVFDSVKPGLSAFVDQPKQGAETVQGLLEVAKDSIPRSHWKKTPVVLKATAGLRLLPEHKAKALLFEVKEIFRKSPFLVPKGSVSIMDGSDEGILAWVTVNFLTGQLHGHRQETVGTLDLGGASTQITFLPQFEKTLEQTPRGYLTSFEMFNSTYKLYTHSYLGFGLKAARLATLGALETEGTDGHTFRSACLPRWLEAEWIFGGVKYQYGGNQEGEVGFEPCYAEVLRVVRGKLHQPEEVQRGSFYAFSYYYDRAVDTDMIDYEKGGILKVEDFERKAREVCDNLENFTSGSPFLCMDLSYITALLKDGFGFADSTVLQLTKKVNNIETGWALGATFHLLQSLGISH", "assay": "ELISA on coated RechuCD39-L4, OD 450 nm [bottom panel Mouse IgG2a I-391]", "method": "as §1"}, "[5]": {"molecular_target": "T4, Recombinant human CD39-L2 (NTPDase6, …)", "assay": "ELISA, recombinant isoform coated at 500 ng/ml or 1 µg/ml", "method": "as §1"}, "[6]": {"molecular_target": "T3, Recombinant human CD39-L3 (NTPDase3, …)", "assay": "ELISA, recombinant isoform coated at 500 ng/ml or 1 µg/ml", "method": "as §1"}, "[7]": {"molecular_target": "T5, Recombinant human CD39-L4 (NTPDase5, …)", "assay": "ELISA, recombinant isoform coated at 500 ng/ml or 1 µg/ml", "method": "as §1"}, "[8]": {"molecular_target": "T6, Human CD39 (vascular CD39, NTPDase1, ENTPD1) expressed at the cell surface (human, UniProt P49961 1-510)", "T6 construct": "also called huCD39; HEK-huCD39", "T6 sequence": "T1 sequence (P49961 1-510)", "assay": "flow cytometry on Ramos cells, antibody at 10 µg/ml, GAM-PE"}}}
{"molecule": "CCN(CC)c1ncnc2c1ncn2[C@@H]1O[C@H](COP(=O)(O)OP(=O)(O)C(Br)(Br)P(=O)(O)O)[C@@H](O)[C@H]1O", "note": "[ARL, reference compound]", "values": [{"measurement": "inhibition of AMP generated", "setting": "CD39", "result": "strong inhibition of AMP generated, but resulted in significantly less CD39 blockade than I-391"}]}
{"molecule": "B1", "values": [{"measurement": "EC50 (read off the curve)", "setting": "[1]", "result": "~0.08", "unit": "mg/L"}, {"measurement": "binding result", "setting": "[2]", "result": "no binding (tested: 50 ug/ml)"}, {"measurement": "binding result", "setting": "[3]", "result": "no binding (tested: 50 ug/ml)"}, {"measurement": "binding result", "setting": "[4]", "result": "no binding (tested: 50 ug/ml)"}]}
{"molecule": "B2", "values": [{"measurement": "binding result", "setting": "[5]", "result": "no binding"}, {"measurement": "binding result", "setting": "[6]", "result": "no binding"}, {"measurement": "binding result", "setting": "[7]", "result": "no binding"}, {"measurement": "binding result", "setting": "[8]", "result": "binds"}]}
